Target: soluble H ectodomain (sH, amino acids 60-617) of measles virus (measles virus) (UniProt P08362)
Assay: SPR

Sequence of UniProt P08362 (P08362 60-617 limits assumed): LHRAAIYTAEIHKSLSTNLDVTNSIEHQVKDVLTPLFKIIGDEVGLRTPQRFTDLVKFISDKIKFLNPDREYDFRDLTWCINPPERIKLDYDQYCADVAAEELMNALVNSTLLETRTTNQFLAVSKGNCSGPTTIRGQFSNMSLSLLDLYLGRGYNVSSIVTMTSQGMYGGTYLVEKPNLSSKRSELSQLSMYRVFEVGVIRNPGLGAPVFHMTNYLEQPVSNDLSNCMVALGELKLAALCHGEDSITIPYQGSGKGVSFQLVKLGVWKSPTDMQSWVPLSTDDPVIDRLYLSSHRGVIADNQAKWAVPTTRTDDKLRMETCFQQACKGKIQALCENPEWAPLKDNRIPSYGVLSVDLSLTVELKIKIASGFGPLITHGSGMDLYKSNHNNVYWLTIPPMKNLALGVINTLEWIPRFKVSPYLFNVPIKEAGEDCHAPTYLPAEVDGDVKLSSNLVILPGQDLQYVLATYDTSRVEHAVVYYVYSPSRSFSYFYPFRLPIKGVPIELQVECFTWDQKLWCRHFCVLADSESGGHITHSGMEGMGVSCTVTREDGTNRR

soluble nectin-4 ectodomain fused to human IgG1 Fc domain (N4VCC-Fc) (from UniProt Q96NY8 32-349) (Fc fusion)
kon relative to that of SLAM and H: 5 fold
